What was measured:
[1] = target: feline CD134 on MCC cells (feline)
[2] = target: CD134 on MYA-1 cells (not stated (endogenous in MYA-1 cells))
[3] = target: CD134 on MYA-1 cells (not stated (endogenous in MYA-1 cells)); remark: listed apart in the source
[4] = target: Chimaeric GL8 (ABSN) Env with the V4-V5 region of variant B14 (feline immunodeficiency virus (FIV), strain GL8 | feline immunodeficiency virus (FIV), strain GL8, in vivo variant)
[5] = target: FIV GL8 Env (molecular clone 414) (feline immunodeficiency virus (FIV), strain GL8)

Substance: FIV B2542 Env (natural protein)
- ratio of luciferase counts (CPM) of HIV(FIV) pseudotype infection on MCC cells with feline CD134 divided by counts on MCC cells with the feCRD1 chimera (feline CRD1 x human CD134); dependency on CRD2 [1]: 5

Substance: FIV Env of A613 variant B14 (natural protein)
- inhibition of HIV(FIV) pseudotype infection of MYA-1 cells by anti-CD134 antibody 7D6 (series 0.4 to 50 μg/ml; reduced by 90% at 0.4 μg/ml) (% reduction of infection) [2]: > 99
- ratio of luciferase counts (CPM) of HIV(FIV) pseudotype infection on MCC cells with feline CD134 divided by counts on MCC cells with the feCRD1 chimera (feline CRD1 x human CD134); dependency on CRD2 [1]: 10
- percent infection of MYA-1 cells by HIV(FIV) pseudotype with anti-CD134 antibody, relative to no antagonist (Fig. 7A) [3]: 19.5 % infection

Substance: FIV Env of A613 variant B23 (natural protein)
- ratio of luciferase counts (CPM) of HIV(FIV) pseudotype infection on MCC cells with feline CD134 divided by counts on MCC cells with the feCRD1 chimera (feline CRD1 x human CD134); dependency on CRD2 [1]: 223

Substance: soluble Fc-CD134 (Fc fusion)
- percent infection of MYA-1 cells by HIV(FIV) pseudotype (Env with cell CD134) with sFc-CD134, relative to no antagonist (Fig. 7B) [4]: 65.1 % infection
- percent infection of MYA-1 cells by HIV(FIV) pseudotype (Env with cell CD134) with sFc-CD134, relative to no antagonist (Fig. 7B) [5]: 18.4 % infection

Reference: paper PMC2873508
